Measurements: PMC3471233

Biological target: GFP-CLASP2 S1234A mutant (human)
Assay: co-IP

Polo-like kinase 1 (Plk1), endogenous (from UniProt P53350 1-603) (natural protein)
reduction of co-immunoprecipitated Plk1 relative to wild type: 40%
